Experimental data taken from PMC3141245.

Assays:
JBP1 D525A = JBP1 D525A (UniProt Q9U6M1 1-827, D525A); test: fluorescence anisotropy
DB-JBP1 K535A = DB-JBP1 K535A (Leishmania tarentolae, UniProt Q9U6M1 382-561, K535A); test: fluorescence anisotropy
DB-JBP1 K436A = DB-JBP1 K436A (Leishmania tarentolae, UniProt Q9U6M1 382-561, K436A); test: fluorescence anisotropy
DB-JBP1 D525A = DB-JBP1 D525A (Leishmania tarentolae, UniProt Q9U6M1 382-561, D525A); test: SPR
DB-JBP1 D536A = DB-JBP1 D536A (Leishmania tarentolae, UniProt Q9U6M1 382-561, D536A); test: SPR

B1: VSG T-DNA 14-mer (dsDNA)
DNA 1: GGCAGCTGCAACAA
DNA 2: TTGTTGCAGCTGCC
Kd (JBP1 D525A): 11.7 µM

B2: VSG J-DNA 14-mer (dsDNA)
DNA 1: GGCAGCTGCAACAA
DNA 2: TTGTTGCAGCTGCC
modifications: base J (beta-D-glucosyl-hydroxymethyluracil) replaces T7 of strand 1
binding result (DB-JBP1 K535A): binds | binding result (DB-JBP1 K436A): binds

B3: VSG J-DNA 14-mer, biotin (dsDNA)
DNA 1: GGCAGCTGCAACAA
DNA 2: TTGTTGCAGCTGCC
modifications: base J replaces T7 of strand 1
binding result (DB-JBP1 D525A): no binding | binding result (DB-JBP1 D536A): binds
